T1: mouse FcγRII (mouse, UniProt P08101 30-210)
T1 construct: Extracellular domain with C-terminal His tag; also called mFcγRII; mFcgRII
T1 sequence: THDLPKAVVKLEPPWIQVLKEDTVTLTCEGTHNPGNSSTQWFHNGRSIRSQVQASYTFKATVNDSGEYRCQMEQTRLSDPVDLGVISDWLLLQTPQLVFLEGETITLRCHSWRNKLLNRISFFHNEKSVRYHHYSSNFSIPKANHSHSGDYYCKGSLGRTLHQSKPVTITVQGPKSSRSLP

T2: mouse FcγRIII (mouse, UniProt P08508 31-215)
T2 construct: Extracellular domain with C-terminal His tag; also called mFcγRIII; mFcgRIII
T2 chain: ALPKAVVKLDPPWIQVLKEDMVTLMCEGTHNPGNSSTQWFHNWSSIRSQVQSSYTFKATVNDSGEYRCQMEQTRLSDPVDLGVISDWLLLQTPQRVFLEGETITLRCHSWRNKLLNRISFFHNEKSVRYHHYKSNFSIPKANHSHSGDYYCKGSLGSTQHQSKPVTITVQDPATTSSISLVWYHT


Assays:
[1] = molecular target: T1, mouse FcγRII; assay: SPR (Biacore T200); KD of H237-MB630/MRAL-k0 / KD of variant
[2] = molecular target: T2, mouse FcγRIII; assay: as above
[3] = molecular target: T1, mouse FcγRII; assay: SPR (Biacore T200); KD of H237-mIgG1/MRAL-k0 / KD of variant
[4] = molecular target: T2, mouse FcγRIII; assay: as above

Row | Relative mFcγRII-binding activity (MB630 = 1) [1] [fold] | Relative mFcγRIII-binding activity (MB630 = 1) [2] [fold] | relative mFcγRII-binding activity (mIgG1 = 1) [3] [fold] | relative mFcγRIII-binding activity (mIgG1 = 1) [4] [fold] | Binder
1 | 1.7 | 1.71 | 22.3 | 0.39 | MB831 (antibody, mouse IgG1, kappa, CH name; VH H237 + CH, L chain MRAL-k0; copies: 2 + 2) heavy: QVQLQESGPGLVKPSETLSLTCAVSGHSISHDHAWSWVRQPPGEGLEWIGFISYSGITNYNPSLQGRVTISRDNSKNTLYLQMNSLRAEDTAVYYCARSLARTTAMDYWGEGTLVTVSSAKTTPPSVYPLAPGSAAQTNSMVTLGCLVKGYFPEPVTVTWNSGSLSSGVHTFPAVLQSDLYTLSSSVTVPSSTWPSETVTCNVAHPASSTKVDKKIVPRDCGCKPCICEPNEVELVFIFPPKPKDVLTITLTPKVTCVVVDISKDDPEVQFSWFVDDVEVHTAQTQPREEQFNSTFRSVSELPIMHQDWLNGKEFKCRVNSAAFPAFIERTISKTKGRPKAPQVYTIPPPKEQMAKDKVSLTCMITDFFPEDITVEWQWNGQPAENYKNTQPIMDTDGSYFVYSKLNVQKSNWEAGNTFTCSVLHEGLHNHHTEKSLSHSPGK light: not shown
2 | 1.29 | 1.25 | 17 | 0.29 | MB834 (antibody, mouse IgG1, kappa, CH name; VH H237 + CH, L chain MRAL-k0; copies: 2 + 2) heavy: QVQLQESGPGLVKPSETLSLTCAVSGHSISHDHAWSWVRQPPGEGLEWIGFISYSGITNYNPSLQGRVTISRDNSKNTLYLQMNSLRAEDTAVYYCARSLARTTAMDYWGEGTLVTVSSAKTTPPSVYPLAPGSAAQTNSMVTLGCLVKGYFPEPVTVTWNSGSLSSGVHTFPAVLQSDLYTLSSSVTVPSSTWPSETVTCNVAHPASSTKVDKKIVPRDCGCKPCICEPNEVELVFIFPPKPKDVLTITLTPKVTCVVVDISKDDPEVQFSWFVDDVEVHTAQTQPREEQFNSTFRSVSELPIMHQDWLNGKEFKCRVNSAAFPAPIYRTISKTKGRPKAPQVYTIPPPKEQMAKDKVSLTCMITDFFPEDITVEWQWNGQPAENYKNTQPIMDTDGSYFVYSKLNVQKSNWEAGNTFTCSVLHEGLHNHHTEKSLSHSPGK light: not shown
3 | 2 | 3.05 | 26.3 | 0.7 | MB835 (antibody, mouse IgG1, kappa, CH name; VH H237 + CH, L chain MRAL-k0; copies: 2 + 2) heavy: QVQLQESGPGLVKPSETLSLTCAVSGHSISHDHAWSWVRQPPGEGLEWIGFISYSGITNYNPSLQGRVTISRDNSKNTLYLQMNSLRAEDTAVYYCARSLARTTAMDYWGEGTLVTVSSAKTTPPSVYPLAPGSAAQTNSMVTLGCLVKGYFPEPVTVTWNSGSLSSGVHTFPAVLQSDLYTLSSSVTVPSSTWPSETVTCNVAHPASSTKVDKKIVPRDCGCKPCICEPNEVELVFIFPPKPKDVLTITLTPKVTCVVVDISDDDPEVQFSWFVDDVEVHTAQTQPREEQFNSTFRSVSELPIMHQDWLNGKEFKCRVNSAAFPAPIEKTISKTKGRPKAPQVYTIPPPKEQMAKDKVSLTCMITDFFPEDITVEWQWNGQPAENYKNTQPIMDTDGSYFVYSKLNVQKSNWEAGNTFTCSVLHEGLHNHHTEKSLSHSPGK light: not shown
4 | 1.92 | 1.94 | 25.3 | 0.45 | MB833 (antibody, mouse IgG1, kappa, CH name; VH H237 + CH, L chain MRAL-k0; copies: 2 + 2) heavy: QVQLQESGPGLVKPSETLSLTCAVSGHSISHDHAWSWVRQPPGEGLEWIGFISYSGITNYNPSLQGRVTISRDNSKNTLYLQMNSLRAEDTAVYYCARSLARTTAMDYWGEGTLVTVSSAKTTPPSVYPLAPGSAAQTNSMVTLGCLVKGYFPEPVTVTWNSGSLSSGVHTFPAVLQSDLYTLSSSVTVPSSTWPSETVTCNVAHPASSTKVDKKIVPRDCGCKPCICEPNEVELVFIFPPKPKDVLTITLTPKVTCVVVDISKDDPEVQFSWFVDDVEVHTAQTQPREEQFNSTFRSVSELPIMHQDWLNGKEFKCRVNSAAFPAYIERTISKTKGRPKAPQVYTIPPPKEQMAKDKVSLTCMITDFFPEDITVEWQWNGQPAENYKNTQPIMDTDGSYFVYSKLNVQKSNWEAGNTFTCSVLHEGLHNHHTEKSLSHSPGK light: not shown
5 | 4.12 | 7.24 | 43.7 | 1.33 | MB847 (antibody, mouse IgG1, kappa, CH name; VH H237 + CH, L chain MRAL-k0; copies: 2 + 2) heavy: QVQLQESGPGLVKPSETLSLTCAVSGHSISHDHAWSWVRQPPGEGLEWIGFISYSGITNYNPSLQGRVTISRDNSKNTLYLQMNSLRAEDTAVYYCARSLARTTAMDYWGEGTLVTVSSAKTTPPSVYPLAPGSAAQTNSMVTLGCLVKGYFPEPVTVTWNSGSLSSGVHTFPAVLQSDLYTLSSSVTVPSSTWPSETVTCNVAHPASSTKVDKKIVPRDCGCKPCICEPNEVELVFIFPPKPKDVLTITLTPKVTCVVVDISKDDPEVQFSWFVDDVEVHTAQTQPREELFNSTFRSVSELPIMHQDWLNGKEFKCRVNSDGFPAPIEKTISKTKGRPKAPQVYTIPPPKEQMAKDKVSLTCMITDFFPEDITVEWQWNGQPAENYKNTQPIMDTDGSYFVYSKLNVQKSNWEAGNTFTCSVLHEGLHNHHTEKSLSHSPGK light: not shown
6 | 0.4 | 0.4 | 5.2 | 0.09 | MB832 (antibody, mouse IgG1, kappa, CH name; VH H237 + CH, L chain MRAL-k0; copies: 2 + 2) heavy: QVQLQESGPGLVKPSETLSLTCAVSGHSISHDHAWSWVRQPPGEGLEWIGFISYSGITNYNPSLQGRVTISRDNSKNTLYLQMNSLRAEDTAVYYCARSLARTTAMDYWGEGTLVTVSSAKTTPPSVYPLAPGSAAQTNSMVTLGCLVKGYFPEPVTVTWNSGSLSSGVHTFPAVLQSDLYTLSSSVTVPSSTWPSETVTCNVAHPASSTKVDKKIVPRDCGCKPCICEPNEVELVFIFPPKPKDVLTITLTPKVTCVVVDISKDDPEVQFSWFVDDVEVHTAQTQPREEQFNSTFRSVSELPIMHQDWLNGKEFKCRVNSAAFPAYIYKTISKTKGRPKAPQVYTIPPPKEQMAKDKVSLTCMITDFFPEDITVEWQWNGQPAENYKNTQPIMDTDGSYFVYSKLNVQKSNWEAGNTFTCSVLHEGLHNHHTEKSLSHSPGK light: not shown
7 | 2.97 | 3.54 | 31.4 | 0.65 | MB849 (antibody, mouse IgG1, kappa, CH name; VH H237 + CH, L chain MRAL-k0; copies: 2 + 2) heavy: QVQLQESGPGLVKPSETLSLTCAVSGHSISHDHAWSWVRQPPGEGLEWIGFISYSGITNYNPSLQGRVTISRDNSKNTLYLQMNSLRAEDTAVYYCARSLARTTAMDYWGEGTLVTVSSAKTTPPSVYPLAPGSAAQTNSMVTLGCLVKGYFPEPVTVTWNSGSLSSGVHTFPAVLQSDLYTLSSSVTVPSSTWPSETVTCNVAHPASSTKVDKKIVPRDCGCKPCICEPNEVELVFIFPPKPKDVLTITLTPKVTCVVVDISKDDPEVQFSWFVDDVEVHTAQTQPREEQFNSTFRSVSELPIMHQDWLNGKEFKCRVNSDGFPAYIEKTISKTKGRPKAPQVYTIPPPKEQMAKDKVSLTCMITDFFPEDITVEWQWNGQPAENYKNTQPIMDTDGSYFVYSKLNVQKSNWEAGNTFTCSVLHEGLHNHHTEKSLSHSPGK light: not shown
8 | 4.33 | 5 | 45.8 | 0.92 | MB848 (antibody, mouse IgG1, kappa, CH name; VH H237 + CH, L chain MRAL-k0; copies: 2 + 2) heavy: QVQLQESGPGLVKPSETLSLTCAVSGHSISHDHAWSWVRQPPGEGLEWIGFISYSGITNYNPSLQGRVTISRDNSKNTLYLQMNSLRAEDTAVYYCARSLARTTAMDYWGEGTLVTVSSAKTTPPSVYPLAPGSAAQTNSMVTLGCLVKGYFPEPVTVTWNSGSLSSGVHTFPAVLQSDLYTLSSSVTVPSSTWPSETVTCNVAHPASSTKVDKKIVPRDCGCKPCICEPNEVELVFIFPPKPKDVLTITLTPKVTCVVVDISKDDPEVQFSWFVDDVEVHTAQTQPREEQFNSTFRSVSELPIMHQDWLNGKEFKCRVDSDGFPAPIEKTISKTKGRPKAPQVYTIPPPKEQMAKDKVSLTCMITDFFPEDITVEWQWNGQPAENYKNTQPIMDTDGSYFVYSKLNVQKSNWEAGNTFTCSVLHEGLHNHHTEKSLSHSPGK light: not shown
9 | 6.8 | 11.6 | 72.1 | 2.12 | MB846 (antibody, mouse IgG1, kappa, CH name; VH H237 + CH, L chain MRAL-k0; copies: 2 + 2) heavy: QVQLQESGPGLVKPSETLSLTCAVSGHSISHDHAWSWVRQPPGEGLEWIGFISYSGITNYNPSLQGRVTISRDNSKNTLYLQMNSLRAEDTAVYYCARSLARTTAMDYWGEGTLVTVSSAKTTPPSVYPLAPGSAAQTNSMVTLGCLVKGYFPEPVTVTWNSGSLSSGVHTFPAVLQSDLYTLSSSVTVPSSTWPSETVTCNVAHPASSTKVDKKIVPRDCGCKPCICEPNEVELVFIFPPKPKDVLTITLTPKVTCVVVDISDDDPEVQFSWFVDDVEVHTAQTQPREEQFNSTFRSVSELPIMHQDWLNGKEFKCRVNSDGFPAPIEKTISKTKGRPKAPQVYTIPPPKEQMAKDKVSLTCMITDFFPEDITVEWQWNGQPAENYKNTQPIMDTDGSYFVYSKLNVQKSNWEAGNTFTCSVLHEGLHNHHTEKSLSHSPGK light: not shown
